The values that follow come from IntAct's records for PubMed 36931259.

B1: 14-3-3 protein sigma (Homo sapiens), P31947 (parent)
chain: MERASLIQKAKLAEQAERYEDMAAFMKGAVEKGEELSCEERNLLSVAYKNVVGGQRAAWRVLSSIEQKSNEEGSEEKGPEVREYREKVETELQGVCDTVLGLLDSHLIKEAGDAESRVFYLKMKGDYYRYLAEVATGDDKKRIIDSARSAYQEAMDISKKEMPPTNPIRLGLALNFSVFHYEIANSPEEAISLAKTTFDEAMADLHTLSEDSYKDSTLIMQLLRDNLTLWTADNAGEEGGEAPQEPQS
partner: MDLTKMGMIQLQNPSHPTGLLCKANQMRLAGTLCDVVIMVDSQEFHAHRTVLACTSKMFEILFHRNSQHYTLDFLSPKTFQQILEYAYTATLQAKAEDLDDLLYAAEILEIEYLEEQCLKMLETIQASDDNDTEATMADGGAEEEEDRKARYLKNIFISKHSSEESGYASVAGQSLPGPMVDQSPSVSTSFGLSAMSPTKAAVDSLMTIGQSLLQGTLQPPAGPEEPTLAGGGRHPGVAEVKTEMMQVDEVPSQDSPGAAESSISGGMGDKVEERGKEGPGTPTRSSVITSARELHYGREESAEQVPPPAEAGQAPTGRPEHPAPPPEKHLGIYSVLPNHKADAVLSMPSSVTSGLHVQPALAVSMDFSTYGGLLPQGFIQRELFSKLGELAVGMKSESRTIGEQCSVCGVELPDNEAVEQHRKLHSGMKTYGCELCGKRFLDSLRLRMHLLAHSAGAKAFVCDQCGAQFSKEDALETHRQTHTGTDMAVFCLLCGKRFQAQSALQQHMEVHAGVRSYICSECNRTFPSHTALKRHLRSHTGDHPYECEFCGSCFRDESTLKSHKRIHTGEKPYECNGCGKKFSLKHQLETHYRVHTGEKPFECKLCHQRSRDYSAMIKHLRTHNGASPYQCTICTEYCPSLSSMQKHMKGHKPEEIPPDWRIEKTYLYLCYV
B2: 14-3-3 protein sigma (Homo sapiens), P31947 (parent)
chain: B1 chain
partner: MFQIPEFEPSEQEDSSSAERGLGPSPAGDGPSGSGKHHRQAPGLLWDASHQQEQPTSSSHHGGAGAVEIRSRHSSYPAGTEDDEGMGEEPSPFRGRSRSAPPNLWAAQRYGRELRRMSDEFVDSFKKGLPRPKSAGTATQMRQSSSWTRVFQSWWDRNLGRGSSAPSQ
B3: 14-3-3 protein sigma (Homo sapiens), P31947 (parent)
chain: B1 chain
partner: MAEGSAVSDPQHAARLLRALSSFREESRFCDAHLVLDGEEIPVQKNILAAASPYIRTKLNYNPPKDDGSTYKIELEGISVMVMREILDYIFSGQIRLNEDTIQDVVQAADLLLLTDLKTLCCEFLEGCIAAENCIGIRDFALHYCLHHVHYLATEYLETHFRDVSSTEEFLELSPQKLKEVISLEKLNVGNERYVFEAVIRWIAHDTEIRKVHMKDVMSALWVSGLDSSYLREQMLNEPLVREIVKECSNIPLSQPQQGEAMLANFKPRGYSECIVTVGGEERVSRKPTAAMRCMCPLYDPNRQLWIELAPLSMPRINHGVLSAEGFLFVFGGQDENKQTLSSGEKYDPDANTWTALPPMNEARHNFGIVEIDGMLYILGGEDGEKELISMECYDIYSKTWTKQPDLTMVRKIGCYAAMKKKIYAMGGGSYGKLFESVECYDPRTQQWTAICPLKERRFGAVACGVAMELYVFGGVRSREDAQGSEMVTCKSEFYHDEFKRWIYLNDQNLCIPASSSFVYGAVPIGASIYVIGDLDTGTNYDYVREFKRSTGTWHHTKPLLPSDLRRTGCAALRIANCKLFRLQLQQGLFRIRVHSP
B4: 14-3-3 protein sigma (Homo sapiens), P31947 (parent)
chain: B1 chain
partner: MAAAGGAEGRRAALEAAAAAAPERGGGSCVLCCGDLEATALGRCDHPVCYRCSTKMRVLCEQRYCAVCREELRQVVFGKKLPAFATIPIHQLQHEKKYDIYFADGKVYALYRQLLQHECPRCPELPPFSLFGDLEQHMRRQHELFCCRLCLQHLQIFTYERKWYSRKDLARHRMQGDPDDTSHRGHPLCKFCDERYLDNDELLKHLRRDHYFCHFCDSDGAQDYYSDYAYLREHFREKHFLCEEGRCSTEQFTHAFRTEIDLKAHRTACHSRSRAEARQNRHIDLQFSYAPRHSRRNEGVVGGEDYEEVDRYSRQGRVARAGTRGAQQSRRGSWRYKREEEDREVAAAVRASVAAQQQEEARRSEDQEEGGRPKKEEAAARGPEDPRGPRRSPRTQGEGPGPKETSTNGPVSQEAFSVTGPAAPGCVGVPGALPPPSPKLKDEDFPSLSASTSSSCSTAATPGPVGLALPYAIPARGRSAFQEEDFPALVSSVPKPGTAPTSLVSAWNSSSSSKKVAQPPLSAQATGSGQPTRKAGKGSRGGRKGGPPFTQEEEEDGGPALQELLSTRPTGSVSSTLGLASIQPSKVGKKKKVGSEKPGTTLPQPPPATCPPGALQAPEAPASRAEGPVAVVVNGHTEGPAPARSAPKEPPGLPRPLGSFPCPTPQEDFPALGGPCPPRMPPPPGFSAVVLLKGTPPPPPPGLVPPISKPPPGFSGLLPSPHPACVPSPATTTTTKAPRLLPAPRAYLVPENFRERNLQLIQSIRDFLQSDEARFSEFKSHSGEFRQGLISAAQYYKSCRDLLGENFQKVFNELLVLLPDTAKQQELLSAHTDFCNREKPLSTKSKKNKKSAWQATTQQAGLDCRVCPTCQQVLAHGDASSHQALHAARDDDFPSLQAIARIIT
B5: 14-3-3 protein sigma (Homo sapiens), P31947 (parent)
chain: B1 chain
partner: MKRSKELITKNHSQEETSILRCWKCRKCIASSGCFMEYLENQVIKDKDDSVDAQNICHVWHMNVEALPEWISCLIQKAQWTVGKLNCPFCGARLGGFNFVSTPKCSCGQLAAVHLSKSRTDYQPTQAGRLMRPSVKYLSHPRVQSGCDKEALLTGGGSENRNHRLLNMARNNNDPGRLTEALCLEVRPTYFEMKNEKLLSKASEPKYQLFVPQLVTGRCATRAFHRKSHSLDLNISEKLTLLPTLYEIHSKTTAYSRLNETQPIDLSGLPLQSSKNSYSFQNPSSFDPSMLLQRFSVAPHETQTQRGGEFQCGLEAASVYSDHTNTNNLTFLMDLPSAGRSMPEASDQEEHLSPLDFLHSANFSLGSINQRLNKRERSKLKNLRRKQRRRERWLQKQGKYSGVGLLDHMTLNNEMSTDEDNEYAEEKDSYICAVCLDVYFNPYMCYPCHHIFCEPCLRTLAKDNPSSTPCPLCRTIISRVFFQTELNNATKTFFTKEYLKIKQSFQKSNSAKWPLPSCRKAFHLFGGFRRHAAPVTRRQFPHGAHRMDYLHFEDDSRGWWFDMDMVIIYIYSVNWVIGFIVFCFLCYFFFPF

In the first experiment the parent is B1. Conditions: with zbt16_human ZBTB16, Q05516.
As for K49E;R56E;V178D, the “effect of a mutation on the interaction” value is reported as “decreasing interaction strength”.

In another experiment the parent is B2. As to conditions: with bad_human BAD.
Regarding K49E;R56E;V178D, the “effect of a mutation on the interaction” value was “decreasing interaction strength”.

The variants in a further experiment derive from B3. Conditions: with gan_human GAN.
Consider K49E;R56E;V178D, for which the “effect of a mutation on the interaction” value is on record as “decreasing interaction strength”.

The next experiment covers variants of B4. Conditions: with zn598_human ZNF598, Q86UK7.
Take K49E;R56E;V178D: the “effect of a mutation on the interaction” value was “decreasing interaction strength”.

In the next experiment the parent is B5. As to conditions: with rn180_human RNF180, Q86T96.
For K49E;R56E;V178D, the “effect of a mutation on the interaction” value was “decreasing interaction strength”.
